{"source": "patent US20250101394", "about": "“NOVEL CRISPR-CAS12I SYSTEMS AND USES THEREOF” (Huidagene Therapeutics (Singapore) PTE. LTD., published 2025)", "conditions_in_all_cases": "tags: N-term SV40 NLS, C-term NP NLS", "key": {"[1]": {"target": "T1, xCas12i (SiCas12i, Cas12i12) (unidentified)", "T1 chain": "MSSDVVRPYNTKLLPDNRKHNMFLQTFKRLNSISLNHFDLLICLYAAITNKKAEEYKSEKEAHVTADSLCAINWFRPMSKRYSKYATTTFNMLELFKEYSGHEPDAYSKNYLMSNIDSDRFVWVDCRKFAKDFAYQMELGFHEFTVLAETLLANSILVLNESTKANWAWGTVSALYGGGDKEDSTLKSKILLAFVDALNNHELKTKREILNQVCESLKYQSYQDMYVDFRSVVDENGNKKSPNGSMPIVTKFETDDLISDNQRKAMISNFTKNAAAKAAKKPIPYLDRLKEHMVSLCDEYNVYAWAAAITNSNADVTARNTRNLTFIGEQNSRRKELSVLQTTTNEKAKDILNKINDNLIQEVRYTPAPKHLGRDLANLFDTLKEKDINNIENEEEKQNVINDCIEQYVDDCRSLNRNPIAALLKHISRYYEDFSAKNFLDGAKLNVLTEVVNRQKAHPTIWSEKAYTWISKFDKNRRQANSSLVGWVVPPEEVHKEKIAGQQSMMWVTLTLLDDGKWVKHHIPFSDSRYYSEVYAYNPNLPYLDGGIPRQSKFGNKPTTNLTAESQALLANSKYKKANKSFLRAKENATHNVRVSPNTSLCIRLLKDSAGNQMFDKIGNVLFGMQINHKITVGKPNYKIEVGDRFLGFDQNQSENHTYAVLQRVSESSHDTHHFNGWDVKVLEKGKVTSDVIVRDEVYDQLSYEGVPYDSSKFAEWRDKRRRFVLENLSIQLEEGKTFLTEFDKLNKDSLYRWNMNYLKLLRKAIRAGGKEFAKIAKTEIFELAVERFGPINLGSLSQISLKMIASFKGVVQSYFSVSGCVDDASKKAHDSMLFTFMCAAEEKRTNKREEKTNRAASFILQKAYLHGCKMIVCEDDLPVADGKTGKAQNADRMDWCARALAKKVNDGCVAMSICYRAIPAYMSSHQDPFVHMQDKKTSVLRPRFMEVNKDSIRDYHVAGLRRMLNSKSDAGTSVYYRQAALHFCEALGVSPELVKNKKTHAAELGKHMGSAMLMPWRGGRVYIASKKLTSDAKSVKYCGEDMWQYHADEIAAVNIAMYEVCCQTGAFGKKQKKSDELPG", "assay": "cell_activity; 5' TTN PAM; EGFP reporter HEK293T; DR-T1", "text": "To vary xCas12i's dsDNA cleavage activity and expand its scope of PAM site recognition, the applicant engineered xCas12i protein via mutagenesis and screened for mutants with higher dsDNA cleavage activity and broader PAM using a dual plasmid fluorescent reporter system similar to the dual plasmid fluorescent reporter system in Example 1, except that the EGxxxxFP-targeting guide RNA (SEQ ID NO: 51; “crON”) coding sequence operably linked to U6 promoter was not located on the expression plasmid together with the xCas12i (or its mutant) coding sequence (SEQ ID NO: 31) but located on the reporter plasmid together with the BFP-P2A-EGxxxxFP coding sequence (SEQ ID NO: 41) (referring to “On-Target Reporter” in FIG. 1B). […] The applicant then individually transfected the expression plasmid and the reporter plasmid into HEK293T cells and analyzed them by FACS (FIG. 1B). […]"}, "[2]": {"target": "T2, Cas12Max (xCas12i-N243R, v1.1) (synthetic construct)", "T2 chain": "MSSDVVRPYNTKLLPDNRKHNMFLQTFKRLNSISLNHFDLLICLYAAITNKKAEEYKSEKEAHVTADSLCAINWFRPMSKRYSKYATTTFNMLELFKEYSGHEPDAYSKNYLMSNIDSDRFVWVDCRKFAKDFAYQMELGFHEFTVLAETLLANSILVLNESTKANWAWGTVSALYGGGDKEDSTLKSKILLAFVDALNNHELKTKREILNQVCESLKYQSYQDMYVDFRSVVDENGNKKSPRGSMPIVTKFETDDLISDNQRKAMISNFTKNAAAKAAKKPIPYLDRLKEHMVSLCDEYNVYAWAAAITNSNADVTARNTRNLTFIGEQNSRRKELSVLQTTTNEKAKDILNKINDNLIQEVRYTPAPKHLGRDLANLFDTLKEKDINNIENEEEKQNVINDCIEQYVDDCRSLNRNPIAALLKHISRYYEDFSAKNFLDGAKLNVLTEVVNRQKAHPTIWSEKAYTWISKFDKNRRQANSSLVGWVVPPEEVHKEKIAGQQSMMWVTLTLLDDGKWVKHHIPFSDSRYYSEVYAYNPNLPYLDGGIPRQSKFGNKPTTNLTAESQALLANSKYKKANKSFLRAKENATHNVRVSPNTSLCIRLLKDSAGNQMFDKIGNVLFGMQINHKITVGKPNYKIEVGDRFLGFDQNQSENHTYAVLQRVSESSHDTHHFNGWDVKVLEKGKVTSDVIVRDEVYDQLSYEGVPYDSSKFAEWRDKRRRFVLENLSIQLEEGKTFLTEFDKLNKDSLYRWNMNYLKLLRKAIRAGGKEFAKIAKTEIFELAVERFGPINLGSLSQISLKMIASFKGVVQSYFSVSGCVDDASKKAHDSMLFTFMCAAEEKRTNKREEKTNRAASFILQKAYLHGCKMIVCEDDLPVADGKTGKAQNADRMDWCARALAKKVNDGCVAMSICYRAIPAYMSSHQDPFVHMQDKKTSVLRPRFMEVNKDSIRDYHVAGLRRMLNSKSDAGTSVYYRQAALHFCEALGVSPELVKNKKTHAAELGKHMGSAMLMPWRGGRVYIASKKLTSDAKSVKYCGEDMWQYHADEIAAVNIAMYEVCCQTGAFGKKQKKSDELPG", "assay": "cell_activity; 5' TTN PAM; EGFP reporter HEK293T"}, "xCas12i-A165R": {"target": "T3, xCas12i-A165R (synthetic construct, A165R)", "T3 chain": "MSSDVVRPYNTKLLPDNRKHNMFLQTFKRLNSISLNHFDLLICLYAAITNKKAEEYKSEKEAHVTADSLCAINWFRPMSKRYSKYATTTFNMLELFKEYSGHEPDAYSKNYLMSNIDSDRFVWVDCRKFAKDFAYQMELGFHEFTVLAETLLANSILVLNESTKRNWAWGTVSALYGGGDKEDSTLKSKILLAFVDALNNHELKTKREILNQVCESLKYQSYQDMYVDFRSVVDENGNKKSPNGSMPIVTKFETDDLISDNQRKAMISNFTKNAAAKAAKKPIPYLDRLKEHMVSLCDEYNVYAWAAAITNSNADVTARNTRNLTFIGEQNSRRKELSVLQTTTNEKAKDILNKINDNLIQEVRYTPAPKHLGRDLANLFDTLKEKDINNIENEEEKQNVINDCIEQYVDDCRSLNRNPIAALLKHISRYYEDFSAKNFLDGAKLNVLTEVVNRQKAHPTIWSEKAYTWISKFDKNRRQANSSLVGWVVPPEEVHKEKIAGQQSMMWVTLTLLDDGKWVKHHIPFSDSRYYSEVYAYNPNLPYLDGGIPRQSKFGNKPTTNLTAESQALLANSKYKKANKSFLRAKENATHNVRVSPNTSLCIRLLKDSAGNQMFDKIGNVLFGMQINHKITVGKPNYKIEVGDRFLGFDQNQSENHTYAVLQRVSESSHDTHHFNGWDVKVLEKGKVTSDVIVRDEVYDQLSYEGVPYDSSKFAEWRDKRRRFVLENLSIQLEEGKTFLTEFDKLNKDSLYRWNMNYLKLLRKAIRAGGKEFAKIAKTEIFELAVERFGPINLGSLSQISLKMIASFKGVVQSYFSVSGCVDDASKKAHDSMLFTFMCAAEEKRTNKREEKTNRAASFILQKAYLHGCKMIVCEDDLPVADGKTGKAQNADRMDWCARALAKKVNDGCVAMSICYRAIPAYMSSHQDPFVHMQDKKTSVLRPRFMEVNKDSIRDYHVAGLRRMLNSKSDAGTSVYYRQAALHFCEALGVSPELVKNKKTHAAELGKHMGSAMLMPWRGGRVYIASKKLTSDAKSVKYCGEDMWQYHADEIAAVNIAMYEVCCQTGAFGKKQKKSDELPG", "assay": "cell_activity; 5' TTN PAM; EGFP reporter HEK293T"}}}
{"binder": "crEGFP guide with DR-T1 ; EGxxxxFP insertion target (ssRNA ; dsDNA) RNA: AUGACUCAGAAAUGUGUCCCCAGUUGACACCCAUUACAGUAGGAGCAUAC DNA 1: GGATCCGTGTCTTTCCCATTACAGTAGGAGCATACGGGAGACAAGCTTTG DNA 2: CAAAGCTTGTCTCCCGTATGCTCCTACTGTAATGGGAAAGACACGGATCC", "values": [{"measurement": "binding signal", "setting": "[1]", "result": "1 fold of WT"}, {"measurement": "binding signal", "setting": "[2]", "result": "3.61 fold of WT"}, {"measurement": "binding signal", "setting": "xCas12i-A165R", "result": "3.15 fold of WT"}]}
